This series concerns the molecule itself. The experiment in a line: crystal structure; nucleotide-free BchL crystallised anaerobically at 15 °C by vapor diffusion; 100 μM dimeric BchL in 100 mM Hepes pH 7.5, 150 mM NaCl, 10% glycerol, 1.7 mM dithionite; well 0.6 M NaCl, 0.1 M MES:NaOH pH 6.5, 20% PEG 4000; 2.6 Å.

B1: BchL (L-protein of dark-operative protochlorophyllide oxidoreductase, DPOR) from Rhodobacter sphaeroides (enzyme, UniProt Q9RFD6 1-297, looked up)
chain: MSPKDLTIPTGADGEGSVQVHLDEADKITGAKVFAVYGKGGIGKSTTSSNLSAAFSILGKRVLQIGCDPKHDSTFTLTGSLVPTVIDVLKDVDFHPEELRPEDFVFEGFNGVMCVEAGGPPAGTGCGGYVVGQTVKLLKQHHLLDDTDVVIFDVLGDVVCGGFAAPLQHADQAVVVTANDFDSIYAMNRIIAAVQAKSKNYKVRLAGCVANRSRATDEVDRFCKETNFRRLAHMPDLDAIRRSRLKKKTLFEMDEDQDVLAARAEYIRLAESLWRGLDPIDPHSLPDRDIFELLGFD
notes: BchL, Rhodobacter sphaeroides; coding region PCR-amplified from genomic DNA and cloned into pRSF-Duet 1 or pET-Duet 1; a TEV protease site follows the His tag; Homodimer with one [4Fe-4S] cluster at the dimer interface, ligated by two cysteines from each subunit; also called WT BchL
In the case of B1, the binding result was “binds”.
